Assay results published in US20250042957A1.

Assays:
TargetA [1] = assay: ELISA on TargetA, DARPin titrated
TargetA [2] = assay: SPR, bio-TargetA coated on NAD chip, DARPin 333.33-4.11 nM

Row | Binder | EC50 (read off the curve) (TargetA [1]) | Kd (TargetA [2])
1 | 2-in-1 DARPin 24 (SEQ ID NO: 93) (designed binder) DLGKKLLQAARAGQLDEVRELLKAGADVNAKDSQGRTPLHLAAFAGHLEIVEVLLKAGADVNAKDHAGWTPLHLAAYAGHLEIVEVLVKAGADVNAKDTEGKTPLHIAAWFGHLEIVEVLLKAGADVNAKDKSGKTPLHLAARAGHLEIVEVLLKAGADVNAKDNSGQTPLHEAAWAGHLEIVEVLLKAGADVNAKNSRGWTPLHTAAQTGHLEIFEVLLKAGADVNAKNDKRVTPLHLAAALGHLEIVEVLLKAGADVNARDSWGTTPADLAAKYGHQDIAEVLQKAA | 0.8 nM | 0.119 nM
2 | Parent DARPin no 4 (SEQ ID NO: 88) (designed binder) DLGKKLLQAARAGQLDEVRELLKAGADVNAKDSQGRTPLHLAAFAGHLEIVEVLLKAGADVNAKDHAGWTPLHLAAYAGHLEIVEVLVKAGADVNAKDTEGKTPLHIAAWFGHLEIVEVLLKAGADVNAQDKSGKTPADLTARAGHQDIAEVLQKAA |  | 0.16 nM

The next binders have a lower Kd (TargetA [2]) than those just listed; values first:

Row | EC50 (read off the curve) (TargetA [1]) | Kd (TargetA [2]) | Binder
3 | 0.7 nM | 0.018 nM | 2-in-1 DARPin 25 (SEQ ID NO: 94) (designed binder) DLGKKLLQAARAGQLDEVRELLKAGADVNAKDSQGRTPLHLAAFAGHLEIVEVLLKAGADVNAKDHAGWTPLHLAAYAGHLEIVEVLVKAGADVNAKDTEGKTPLHIAAWFGHLEIVEVLLKAGADVNAKDKSGKTPLHLAARAGHLEIVEVLLKAGADVNAKDNSGQTPLHLAAWAGHLEIVEVLLKAGADVNAKNSRGWTPLHTAAQTGHLEIFEVLLKAGADVNAKNDKRVTPLHLAAALGHLEIVEVLLKAGADVNARDSWGTTPADLAAKYGHQDIAEVLQKAA
4 | 1 nM | 0.024 nM | 2-in-1 DARPin 23 (SEQ ID NO: 92) (designed binder) DLGKKLLQAARAGQLDEVRELLKAGADVNAKDSQGRTPLHLAAFAGHLEIVEVLLKAGADVNAKDHAGWTPLHLAAYAGHLEIVEVLVKAGADVNAKDTEGKTPLHIAAWFGHLEIVEVLLKAGADVNAKDKSGQTPLHLAAWAGHLEIVEVLLKAGADVNAKNSRGWTPLHTAAQTGHLEIFEVLLKAGADVNAKNDKRVTPLHLAAALGHLEIVEVLLKAGADVNARDSWGTTPADLAAKYGHQDIAEVLQKAA
